Data as given in paper PMC8776730 (Nature Communications, 2022).
Each block holds one compound with its values, some of them ahead of it.

How the values were obtained:
MIA PaCa-2 tumor = conditions: mouse, in vivo, iv, 16 mg/kg
Procedure: In order to reduce systemic error and individual difference, we constructed the subcutaneous pancreatic cancer model in mice for quantitatively calculating of the metabolic data.
All the animal experiments were performed in accordance with the Guide for the Care and Use of Laboratory Animals approved by the Committee for Animal Research of the National Center for Nanoscience and Technology. The MIA PaCa-2 tumor-bearing mice were intravenously injected with ICG, M1 and M2 (16 mg/kg), respectively for in vivo fluorescence imaging with in vivo spectrum imaging system. Finally, mice were sacrificed to collect the major organs and tumors for ex vivo fluorescence imaging.

[1] = mouse, in vivo, iv, 16 mg/kg
[2] = system: Recombinant Human Fibroblast Activation Protein-α (FAP-α); assay: FAP-α in buffer: 50 mM Tris, 1 M NaCl, 1 mg/mL, BSA, pH 7.5; conditions: up to 12 h
FAP-α = biological target: T1, FAP-α (Homo sapiens, UniProt Q12884); assay: FAP-α tailoring (cleavage) followed by HPLC and MALDI-TOF; type: biochemical; conditions: 100 μM molecule, FAP-α 50 μM, 12 h; buffer 50 mM Tris, 1 M NaCl, 1 mg/mL BSA, pH 7.5; HPLC (M3, M5), MALDI-TOF (M1)
T1 construct: purchased R&D SYSTEM
T1 sequence (Q12884 1-760): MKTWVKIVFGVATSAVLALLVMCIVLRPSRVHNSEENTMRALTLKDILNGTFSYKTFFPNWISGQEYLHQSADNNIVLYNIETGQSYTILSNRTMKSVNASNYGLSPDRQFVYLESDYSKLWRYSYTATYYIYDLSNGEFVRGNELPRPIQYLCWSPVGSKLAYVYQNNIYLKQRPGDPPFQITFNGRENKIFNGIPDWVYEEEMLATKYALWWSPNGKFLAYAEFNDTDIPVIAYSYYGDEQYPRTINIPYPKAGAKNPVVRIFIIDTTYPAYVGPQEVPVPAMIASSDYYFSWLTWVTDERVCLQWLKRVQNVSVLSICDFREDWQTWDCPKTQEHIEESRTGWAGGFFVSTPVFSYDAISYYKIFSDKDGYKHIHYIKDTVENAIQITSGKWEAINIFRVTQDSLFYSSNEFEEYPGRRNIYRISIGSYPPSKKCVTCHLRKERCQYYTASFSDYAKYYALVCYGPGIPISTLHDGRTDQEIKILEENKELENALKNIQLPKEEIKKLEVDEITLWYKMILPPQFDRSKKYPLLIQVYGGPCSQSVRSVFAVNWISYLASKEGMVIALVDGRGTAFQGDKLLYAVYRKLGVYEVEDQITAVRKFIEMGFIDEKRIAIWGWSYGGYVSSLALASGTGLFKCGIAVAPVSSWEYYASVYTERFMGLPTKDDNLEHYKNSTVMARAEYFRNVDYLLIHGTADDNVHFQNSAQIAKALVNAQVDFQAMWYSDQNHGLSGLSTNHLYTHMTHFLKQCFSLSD
Source text: To further investigate the FAP-α specific tailoring and BIVA probe assembly in situ simultaneously (Fig. 4a), the high-performance liquid chromatography (HPLC), TEM, and matrix-assisted laser desorption/ionization time-of-flight (MALDI-TOF) mass spectrometry were applied for the characterizations purpose. To specify the cutting of the response tailoring motif (Gly-Pro-Ala), pre-synthesized molecules of R-M3, M3 and M5 were set as controls. […] Comparing the residues peaks with R-M3, the primary sharp peak at 27.4 min can be identified by the R-M3 control (27.6 min). […] The retention time of M1 after co-incubation with inactivated FAP-α was similar to that of M3 (Supplementary Fig. 14). After hydrolyzed by FAP-α, the residues of M1 in situ assembled into nanofibers structures under the complex buffer (Fig. 4c and Supplementary Fig. 15). […] In order to further evaluate the specificity of M1 for different enzymes, including FAP-α, pepsin, pancreatin, lipase, and BSA, we used ThT (Thioflavin T) as a detection probe (Fig. 4e).
Fig. 4 The FAP-α specific molecule tailoring and inducing in situ assembly. a The illustration the working mechanism of BIVA probe based on FAP-α catalytic hydrolysis. b HPLC curves of M3 and M5 after incubation with FAP-α in buffer. R-M3, M3 and M5 were synthesized controls. The TEM image (c), and the MALDI-TOF (d), results of M1 after tailoring by FAP-α in buffer, the red arrows represent the assembled fibrils of M1 after incubation with FAP-α. e The enzyme specificity of M1 in buffer. Buffer: 50 mM Tris, 1 M NaCl, 1 mg/mL, BSA, pH 7.5; Concentration of M1 and M3: 100 μM; Concentration of FAP-α: 50 μM; incubation time: 12 h. […]

[3] = Critical assembly concentration (CAC) by pyrene fluorescence probe; type: physicochemical
Source text: In order to study the molecular design and their assembly behavior, we modular designed and synthesized seven molecules (Table 1), which respectively were BIVA probe: M1 (mPEG-GPAKLVFFGC(IR783)GRGD); the non- FAP-α tailoring molecule: M2 (mPEG-AGGKLVFFGC(IR783)GRGD) scrambled response tailoring motif of Gly-Pro-Ala with Ala-Gly-Gly; the non-labeling molecule of M1: M3 (mPEG-GPAKLVFFGCGRGD) removed IR783 labeling; FAP-α tailoring residue of M1: R-M1 (AKLVFFGC(IR783)GRGD); the non-targeting molecule: M4 (mPEG-GPAKLVFFGC(IR783)GDTG) scrambled targeting tailoring motif of Arg-Gly-Asp with Asp-Thr-Gly; the non-labeling molecule of M2: M5 (mPEG-AGGKLVFFGCGRGD) removed IR783 labeling; FAP-α tailoring residue of M3: R-M3 (AKLVFFGCGRGD). All the synthesized procedure (Supplementary Fig. 1) and characterizations of these seven molecules can be found in SI (Supplementary Figs. 2–8). […] Without IR783 labeling, molecules of M3 and M5 decreased the CAC value in solution relative to M1 and M2, which could be attributed to the proximity of the steric hindrance of hydrophilic IR783 to the self-assembly motif (Supplementary Fig. 9). […] The CAC was quantitatively calculated by fluorescence probe of pyrene.

MIA PaCa-2 cells [4] = assay: Cellular imaging (CLSM) of FITC-labelled molecules; type: cell-based; conditions: FITC-labelled molecules, MIA PaCa-2 cells, 1 h incubation, CLSM
Procedure: To further confirm this hypothesis, the M1 and M2 were equally labeled by FITC for cell imaging (Fig. 5b). To simulate the dynamic physiological condition, the cell culture medium was replaced every 15 min. After 1 h of incubation with M1 and M2 at the same molecule molar concentration, there occurred significant differences between the two molecules (Fig. 5c). […] The huge difference can be explained by the fact that the secondary assembly rate broke the balance between the targeted ligand and receptor, and thus tended to a stable assembly interaction. The retention efficiency depended on the assembly rate constant Ka. Meanwhile, the rapid dynamic assembly of BIVA probe in situ around the cell membrane, and contributed to the efficient formation and retention of nanofibers on the cell profile. When the incubation time was delayed up to 2 h, some components could be endocytosed into the cells, but most of them were found on the membranes (Supplementary Fig. 18). […] Then, the isolated cells were collected and lysed, the extracted cell membrane fragments were stained with ThT. […] In order to verify the influence of the addition of the targeting module of the probe molecules, we explored the imaging of R-M1 and M4 on cells.
(§1) Fig. 5 The BIVA effect with enhanced targeting to pancreatic tumor cell for boundaries imaging. a Illustration of BIVA effect: active targeting and assembly/aggregate induced retention (AIR) effect. b Chemical structure of FITC labeling. c 2D and 3D confocal images of M2 with active targeting property and M1 with BIVA effect on MIA PaCa-2 cells after incubation for 1 h. d The distribution of M1 on MIA PaCa-2 cell. e ThT staining of the lysed cell membrane of MIA PaCa-2. f, Illustration of migration inhibition after treated by BIVA probe. g The image of the migrated cells after treatment of PBS (blank), M2, M4, and M1. Scale bar: 100 μm. h The pie diagram of quantitative statistical calculation of the migrated cells (blue) in different groups. The blank control was set as 100% migrated cells.
MIA PaCa-2 cells were digested with trypsin, counted with cell counting plate, diluted to 1 × 10^4 with DMEM medium, and 1 mL to 1 cm diameter confocal microscope dish was taken. The cells were incubated in […] atmosphere for 24 h. The medium containing M1 and M2 (50 μM) was replaced and incubated with the cells for 2 h. The cells were washed with PBS for 3 times. CLSM (Zeiss 710) was used to image cells under 40 × objective, excitation = 488 nm, and emission >520 nm.
Supplementary Fig. 19 ∣ CLSM images of Miapaca-2 cells treated with different molecules or M1 under different conditions. […]

MIA PaCa-2 cells [5] = assay: Transwell migration assay; type: cell-based; conditions: MIA PaCa-2, 150 μM, 24 h; blank control = 1
Procedure: as §1
In order to further understand the contribution of the active targeting and AIR effect during locating of the cells, the cell transwell experiment was used to quantitively evaluate interference of the cell migration based on M1, M2, and M4 (Fig. 5f). As expected, untreated cells were easy to migrate to the lower chamber, while the cells treated with active targeting molecule M2 and assembled molecule M4, the migration of cell were reduced. Under the same molar concentration, the M1 treatment group had the most inference on cell migration (Fig. 5g). […] Based on those results, we speculate M1 can be more enriched in the tumor site and form fibers through assembly to inhibit tumor cell migration compared to M2 and M4 which have no ability to target and adhere on the cell membrane.
Transwell migration assay occurred in chemotaxis chambers containing 24 wells. […] Bottom chambers contained DMEM medium containing 10% FBS. After 24 h of treatment with M1, M2, and M4 (150 μM), we fixed cells using 4% paraformaldehyde and stained with 0.25% crystal violet solution. The stained cells were counted using a microscope.
Supplementary Fig. 20∣ The quantitative results of the migrated cells after treatment of PBS (blank), M2, […] and
M1 (Fig 5g). The mean of results of fiveparallel experiments is shown and data were expressed as mean ± SD (n=5).
pM1 = 5.85E-06, pM2 = 5.94E-05, pM4 = 3.16 E-04, Statisticalanalysis: one-way ANOVA followed by post hoc Tukey’s
(1 picture or pasted object on this page, not shown here)

time to complete metabolic clearance (MIA PaCa-2 tumor): ≤ 8 h
blood circulation half-life (t1/2) [1]: 2.5 ± 0.5 min
Compound: CC1(C)C(/C=C/C=C/C=C/C=C2\N(CCCCS(=O)(=O)O)c3ccc4ccccc4c3C2(C)C)=[N+](CCCCS(=O)(=O)[O-])c2ccc3ccccc3c21 [ICG, indocyanine green]

not cleaved [2]: no change of the retention peak
Compound: mPEG-AGGKLVFFGCGRGD

tailoring (cleavage) by FAP-α (FAP-α): no change of the retention peak
Compound: mPEG-AGGKLVFFGCGRGD [M5, the non-labeling molecule of M2]
Critical assembly concentration (CAC) ([3]; aqueous solution, analyzed based on pyrene fluorescence): >332.7 µM
pyrene I1/I3 ([3]; conc 100 μM): 1.152
pyrene I1/I3 ([3]; conc 200 μM): 1.176
pyrene I1/I3 ([3]; conc 300 μM): 1.178
pyrene I1/I3 ([3]; conc 400 μM): 1.119
pyrene I1/I3 ([3]; conc 500 μM): 1.173
pyrene I1/I3 ([3]; conc 600 μM): 1.077
pyrene I1/I3 ([3]; conc 700 μM): 1.029
pyrene I1/I3 ([3]; conc 800 μM): 1.021
pyrene I1/I3 ([3]; conc 900 μM): 0.975

Compound: mPEG-GPAKLVFFGC(IR783)GDTG [M4, the non-targeting molecule]
fluorescence signal on the cell membrane (MIA PaCa-2 cells [4]): only a small amount of fluorescence signal
emigrate (migrated cells relative to blank) (MIA PaCa-2 cells [5]): 0.5282

cleaved bond [2]: Pro-Ala
Compound: mPEG-GPAKLVFFGCGRGD
